Laboratory results reported in patent US20200165349A1 (Genmab, published 2020).
Substitutions are numbered along the chain they refer to. In names and notes the source's numbering stands.

Assays:
Human PD-L1 = biological target: T1, Human PD-L1 (human, UniProt Q9NZQ7 19-290); assay: flow cytometry on MDA-MB-231 tumor cells
T1 construct: Amino acids 1-18 are stated to be a predicted signal peptide; also called CD274; B7H1

Human CD137 [1] = biological target: T2, Human CD137 (human, UniProt Q07011 24-255); assay: cell-based or functional assay
Human CD137 [2] = biological target: T2, Human CD137; assay: cell-based or functional assay; remark: listed apart in the source
Human CD137 [3] = biological target: T2, Human CD137; assay: flow cytometry on FreeStyle HEK293 cells expressing CD137 (alanine scanning), 3 µg/mL A488-labeled antibody
Wild boar CD137 = biological target: T3, Wild boar CD137 (wild boar (Sus scrofa)); assay: flow cytometry on transfected HEK293T-17 cells
T3 construct: Amino acids 1-23 are stated to be a predicted signal peptide; Expressed on HEK293T-17 cells; also called Sus scrofa CD137
T3 chain: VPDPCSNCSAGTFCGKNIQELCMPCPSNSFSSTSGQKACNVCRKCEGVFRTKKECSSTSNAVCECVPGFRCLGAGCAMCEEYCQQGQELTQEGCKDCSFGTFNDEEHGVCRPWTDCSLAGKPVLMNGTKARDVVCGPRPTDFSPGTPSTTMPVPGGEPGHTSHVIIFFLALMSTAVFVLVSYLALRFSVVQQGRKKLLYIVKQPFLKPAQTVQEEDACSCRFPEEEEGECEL

African elephant CD137 = biological target: T4, African elephant CD137 (African elephant (Loxodonta africana)); assay: flow cytometry on transfected HEK293T-17 cells
T4 construct: Amino acids 1-23 are stated to be a predicted signal peptide; Expressed on HEK293T-17 cells; also called Loxodonta africana CD137
T4 chain: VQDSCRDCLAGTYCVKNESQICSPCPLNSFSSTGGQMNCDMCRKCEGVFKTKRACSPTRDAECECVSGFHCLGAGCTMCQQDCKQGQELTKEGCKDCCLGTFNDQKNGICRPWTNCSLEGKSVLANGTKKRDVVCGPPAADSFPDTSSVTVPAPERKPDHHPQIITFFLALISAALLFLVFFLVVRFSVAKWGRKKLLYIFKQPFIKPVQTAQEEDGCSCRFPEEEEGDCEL

[4] = biological target: T5, Human CD137 shuffle 5 (amino acids 48-88 of African elephant CD137) (human with African elephant residues …, UniProt Q07011 24-255); assay: flow cytometry on transfected HEK293T-17 cells
T5 construct: also called shuffle construct 5; shuffle 5/elephant
T5 chain: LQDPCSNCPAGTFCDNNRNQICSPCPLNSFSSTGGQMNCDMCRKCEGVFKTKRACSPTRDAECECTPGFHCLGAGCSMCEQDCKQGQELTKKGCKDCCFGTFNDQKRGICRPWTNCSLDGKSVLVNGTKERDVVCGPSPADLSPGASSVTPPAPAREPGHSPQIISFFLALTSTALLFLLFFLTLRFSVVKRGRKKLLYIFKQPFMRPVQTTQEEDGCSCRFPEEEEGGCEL

Human CD137 [5] = biological target: T2, Human CD137; assay: flow cytometry on transfected HEK293T-17 cells, 1 µg/mL antibody

T1 sequence (Q9NZQ7 19-290): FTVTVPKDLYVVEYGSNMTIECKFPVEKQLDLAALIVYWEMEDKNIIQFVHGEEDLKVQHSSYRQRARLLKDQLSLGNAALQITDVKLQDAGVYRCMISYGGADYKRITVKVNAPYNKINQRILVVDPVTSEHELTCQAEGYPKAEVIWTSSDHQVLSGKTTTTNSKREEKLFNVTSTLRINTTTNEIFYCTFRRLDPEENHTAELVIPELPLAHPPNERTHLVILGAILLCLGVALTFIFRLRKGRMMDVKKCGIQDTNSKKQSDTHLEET

B1: PD-L1-547-FEAR (antibody, human IgG1, lambda, V domains shown)
VH: EVQLLEPGGGLVQPGGSLRLSCEASGSTFSTYAMSWVRQAPGKGLEWVSGFSGSGGFTFYADSVRGRFTISRDSSKNTLFLQMSSLRAEDTAVYYCAIPARGYNYGSFQHWGQGTLVTVSS
VL: SYVLTQPPSVSVAPGQTARITCGGNNIGSKSVHWYQQKPGQAPVLVVYDDNDRPSGLPERFSGSNSGNTATLTISRVEAGDEADYYCQVWDSSSDHVVFGGGTKLTVLG
notes: Human IgG1 lambda with L234F, L235E, D265A and K409R
B1: binds (Human PD-L1).

B2: PD-L1-547-FEAL×CD137-009-HC7LC2-FEAR (bispecific antibody, human IgG1, kappa, lambda)
heavy 1: EVQLLEPGGGLVQPGGSLRLSCEASGSTFSTYAMSWVRQAPGKGLEWVSGFSGSGGFTFYADSVRGRFTISRDSSKNTLFLQMSSLRAEDTAVYYCAIPARGYNYGSFQHWGQGTLVTVSSASTKGPSVFPLAPSSKSTSGGTAALGCLVKDYFPEPVTVSWNSGALTSGVHTFPAVLQSSGLYSLSSVVTVPSSSLGTQTYICNVNHKPSNTKVDKRVEPKSCDKTHTCPPCPAPEFEGGPSVFLFPPKPKDTLMISRTPEVTCVVVAVSHEDPEVKFNWYVDGVEVHNAKTKPREEQYNSTYRVVSVLTVLHQDWLNGKEYKCKVSNKALPAPIEKTISKAKGQPREPQVYTLPPSREEMTKNQVSLTCLVKGFYPSDIAVEWESNGQPENNYKTTPPVLDSDGSFLLYSKLTVDKSRWQQGNVFSCSVMHEALHNHYTQKSLSLSPGK
light 1: SYVLTQPPSVSVAPGQTARITCGGNNIGSKSVHWYQQKPGQAPVLVVYDDNDRPSGLPERFSGSNSGNTATLTISRVEAGDEADYYCQVWDSSSDHVVFGGGTKLTVLGQPKAAPSVTLFPPSSEELQANKATLVCLISDFYPGAVTVAWKADSSPVKAGVETTTPSKQSNNKYAASSYLSLTPEQWKSHRSYSCQVTHEGSTVEKTVAPTECS
heavy 2: EVQLVESGGGLVQPGRSLRLSCTASGFSLNDYWMSWVRQAPGKGLEWVGYIDVGGSLYYAASVKGRFTISRDDSKSIAYLQMNSLKTEDTAVYYCARGGLTYGFDLWGQGTLVTVSSASTKGPSVFPLAPSSKSTSGGTAALGCLVKDYFPEPVTVSWNSGALTSGVHTFPAVLQSSGLYSLSSVVTVPSSSLGTQTYICNVNHKPSNTKVDKRVEPKSCDKTHTCPPCPAPEFEGGPSVFLFPPKPKDTLMISRTPEVTCVVVAVSHEDPEVKFNWYVDGVEVHNAKTKPREEQYNSTYRVVSVLTVLHQDWLNGKEYKCKVSNKALPAPIEKTISKAKGQPREPQVYTLPPSREEMTKNQVSLTCLVKGFYPSDIAVEWESNGQPENNYKTTPPVLDSDGSFFLYSRLTVDKSRWQQGNVFSCSVMHEALHNHYTQKSLSLSPGK
light 2: DIVMTQSPSSLSASVGDRVTITCQASEDISSYLAWYQQKPGKAPKRLIYGASDLASGVPSRFSASGSGTDYTFTISSLQPEDIATYYCHYYATISGLGVAFGGGTKVEIKRTVAAPSVFIFPPSDEQLKSGTASVVCLLNNFYPREAKVQWKVDNALQSGNSQESVTEQDSKDSTYSLSSTLTLSKADYEKHKVYACEVTHQGLSSPVTKSFNRGEC
In the case of B2, the “EC50 value, CD8+ T-cell expansion, donor 1, 0.03 µg/ml anti-CD3” value (Human CD137 [1]) is reported as 12.2 ng/mL and the “EC50 value, CD8+ T-cell expansion, donor 2, 0.09 µg/ml anti-CD3” value (Human CD137 [1]) is reported as 6.89 ng/mL.

B3: b12-FEAL×PD-L1-547-FEAR (bispecific antibody, not shown: large carriers)
heavy 1: QVQLVQSGAEVKKPGASVKVSCQASGYRFSNFVIHWVRQAPGQRFEWMGWINPYNGNKEFSAKFQDRVTFTADTSANTAYMELRSLRSADTAVYYCARVGPYSWDDSPQDNYYMDVWGKGTTVIVSSASTKGPSVFPLAPSSKSTSGGTAALGCLVKDYFPEPVTVSWNSGALTSGVHTFPAVLQSSGLYSLSSVVTVPSSSLGTQTYICNVNHKPSNTKVDKRVEPKSCDKTHTCPPCPAPEFEGGPSVFLFPPKPKDTLMISRTPEVTCVVVAVSHEDPEVKFNWYVDGVEVHNAKTKPREEQYNSTYRVVSVLTVLHQDWLNGKEYKCKVSNKALPAPIEKTISKAKGQPREPQVYTLPPSREEMTKNQVSLTCLVKGFYPSDIAVEWESNGQPENNYKTTPPVLDSDGSFLLYSKLTVDKSRWQQGNVFSCSVMHEALHNHYTQKSLSLSPGK
light 1: EIVLTQSPGTLSLSPGERATFSCRSSHSIRSRRVAWYQHKPGQAPRLVIHGVSNRASGISDRFSGSGSGTDFTLTITRVEPEDFALYYCQVYGASSYTFGQGTKLERK
heavy 2: B2 heavy 1 with L409F, K413R
light 2: B2 light 1
notes: also called monovalent PD-L1 antibody; monovalent PD-L1-control antibody
B3: binds (Human PD-L1).

B4: CD137-009-FEAL×PD-L1-547-FEAR (bispecific antibody, human IgG1, kappa, lambda)
heavy 1: QSLEESGGRLVTPGTPLTLTCTVSGFSLNDYWMSWVRQAPGKGLEWIGYIDVGGSLYYASWAKGRFTISRTSTTVDLKMTSLTTEDTATYFCARGGLTYGFDLWGPGTLVTVSSASTKGPSVFPLAPSSKSTSGGTAALGCLVKDYFPEPVTVSWNSGALTSGVHTFPAVLQSSGLYSLSSVVTVPSSSLGTQTYICNVNHKPSNTKVDKRVEPKSCDKTHTCPPCPAPEFEGGPSVFLFPPKPKDTLMISRTPEVTCVVVAVSHEDPEVKFNWYVDGVEVHNAKTKPREEQYNSTYRVVSVLTVLHQDWLNGKEYKCKVSNKALPAPIEKTISKAKGQPREPQVYTLPPSREEMTKNQVSLTCLVKGFYPSDIAVEWESNGQPENNYKTTPPVLDSDGSFLLYSKLTVDKSRWQQGNVFSCSVMHEALHNHYTQKSLSLSPGK
light 1: DIVMTQTPASVSEPVGGTVTINCQASEDISSYLAWYQQKPGQRPKRLIYGASDLASGVPSRFSASGSGTEYALTISDLESADAATYYCHYYATISGLGVAFGGGTEVVVKRTVAAPSVFIFPPSDEQLKSGTASVVCLLNNFYPREAKVQWKVDNALQSGNSQESVTEQDSKDSTYSLSSTLTLSKADYEKHKVYACEVTHQGLSSPVTKSFNRGEC
heavy 2: B2 heavy 1 with L409F, K413R
light 2: B2 light 1
For B4, the “EC50 of the induction of antigen-specific T cell proliferation, '% divided cells'” value (Human CD137 [2]) was 3.49 ng/mL and the “EC50 of the induction of antigen-specific T cell proliferation, 'proliferation index'” value (Human CD137 [2]) was 5.39 ng/mL.

B5: b12-FEAL×CD137-009-FEAR-A488 (bispecific antibody, not shown: large carriers)
heavy 1: B3 heavy 1
light 1: B3 light 1
heavy 2: B4 heavy 1 with L402F, K406R
light 2: B4 light 1
B5: binds (Human CD137 [3]).

B6: CD137-005-FEAR-A488 (antibody, V domains shown)
VH: QSVEESGGRLVTPGTPLTLTCTASGFTISDFHVTWVRQAPGKGLEWIGTIITSASTTAYATWARGRFTISKSSTTVNLKIVSPTTEDTATYFCARSTYTDTSGYYFDFWGQGTLVTVSS
VL: AQVLTQTASPVSAAVGGTVIINCQSSQSIYNGNRLSWYQQKPGQPPKLLIYSASTLASGVSSRFKGSGSGTQFTLAISDVQSDDAATYYCLGSYDCDSADCFAFGGGTEVVVER
notes: Conjugated with Alexa Fluor 488
B6: binds (Human CD137 [3]).

B7: CD137-009 (antibody, human IgG1, kappa, V domains shown)
VH: QSLEESGGRLVTPGTPLTLTCTVSGFSLNDYWMSWVRQAPGKGLEWIGYIDVGGSLYYASWAKGRFTISRTSTTVDLKMTSLTTEDTATYFCARGGLTYGFDLWGPGTLVTVSS
VL: DIVMTQTPASVSEPVGGTVTINCQASEDISSYLAWYQQKPGQRPKRLIYGASDLASGVPSRFSASGSGTEYALTISDLESADAATYYCHYYATISGLGVAFGGGTEVVVKR
notes: Rabbit variable regions on human IgG1; also called chimeric CD137 antibody; rabbit anti-CD137-009
B7: no binding (tested: 1 µg/mL) (Wild boar CD137); no binding (tested: 1 µg/mL) (African elephant CD137); no binding (tested: 1 µg/mL) [4]. B7: binds (Human CD137 [5]).
